Experiments:
SARS-CoV-2 S2 protein [1] = target: SARS-CoV-2 S2 protein (SARS-CoV-2 (WT), UniProt P0DTC2 686-1213); assay: streptavidin bead fluorescence binding; settings: protein: commercial; tags: His
SARS-CoV-2 S2 protein [2] = target: SARS-CoV-2 S2 protein (SARS-CoV-2 (WT), UniProt P0DTC2 686-1213); assay: streptavidin bead fluorescence binding; settings: protein: commercial, tags: His
[3] = target: SARS-CoV-2 spike protein WT (SARS-CoV-2 (WT), UniProt P0DTC2 14-1213); assay: streptavidin bead fluorescence binding; settings: protein: commercial, tags: His, chain copies: 3
SARS-CoV-2 S1 protein = SARS-CoV-2 S1 protein (SARS-CoV-2, UniProt P0DTC2 14-685)
SARS-CoV-1 spike protein = SARS-CoV-1 spike protein (SARS-CoV-1, UniProt P59594 14-1195)
PD-L1 = PD-L1 (UniProt Q9NZQ7 19-238); assay: AuNP colorimetric assay; 1.5 M NaCl, 250 nM each; SELEX buffer: PBS, 1 mM MgCl2, 0.01% Tween, pH 7.4, room temperature; settings: protein: commercial; hairpin
Sequence of PD-L1 (Q9NZQ7 19-238): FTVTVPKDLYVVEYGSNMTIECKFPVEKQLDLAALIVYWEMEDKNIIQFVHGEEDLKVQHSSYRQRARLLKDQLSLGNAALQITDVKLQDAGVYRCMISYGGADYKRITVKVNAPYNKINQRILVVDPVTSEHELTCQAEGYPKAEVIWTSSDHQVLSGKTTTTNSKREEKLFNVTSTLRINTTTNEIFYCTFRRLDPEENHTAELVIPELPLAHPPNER

B1: S2A1 (ssDNA)
DNA: CAAGGAGCGACCAGAGGGGCGGTTTATCAACAACTCGCTCTGTACACCACTCTTTGTTGGCATCCTTCAGCCC
Work on B1 yielded a Kd (SARS-CoV-2 S2 protein [1]) of 49.7 ± 3.2 nM.

B2: S2A1C1 (ssDNA)
DNA: CAAGGAGCGACCAGAGGGGCGGTTTATCAACAACTCGCTCTGTACACCACTCTTTG
B2: binds (SARS-CoV-2 S2 protein [1]).

B3: S2A2 (ssDNA)
DNA: CAAGGAGCGACCAGAGGCGGGTTCCTAGACTTGTACTCAGCCTTTACAGCTATGCCCTGGCATCCTTCAGCCC
B3 showed a Kd (SARS-CoV-2 S2 protein [2]; label: 6-FAM) of 44.2 ± 6.6 nM.

AGGCGGGTTCCTAGACTTGTACTCAGCCT (ssDNA) [S2A2C1] was tested, and the Kd ([3]; hairpin) was 83.4 ± 8 nM, the Kd (SARS-CoV-2 S2 protein [2]; hairpin) was 35 ± 4.3 nM and the binding result (SARS-CoV-2 S1 protein) was “no binding”. AGGCGGGTTCCTAGACTTGTACTCAGCCT (ssDNA) [S2A2C1]: binds (SARS-CoV-1 spike protein); no binding (PD-L1).

CAAGGAGCGACCAGAGGCGGGTTCCTAGACTTGTACTCAGCCT (ssDNA) [S2A2C3]: binds (SARS-CoV-2 S2 protein [2]; label: 6-FAM).

CGCAGCACCCAAGAACAAGGACTGCTTAGGATTGCGATAGGTTCGG (ssDNA) [S1B6C3] gave a Kd [3] of 56.4 ± 14.2 nM.
